Laboratory results from patent US20140087995A1 (published 2014).
Numbered stars: 1 amine (or outer) side, 2 acyl side, 3 side chain; on linkers, the order of the positions; unused ones are H or OH. Bridge positions count the residues as written; N and C are the ends. Side chains are listed from the residue outwards. Ends that are not written are not given here. * marks the point of attachment. C20 diacid = O=C(O)CCCCCCCCCCCCCCCCCCC(=O)*; γGlu = O=C(O)[C@H](CCC(=O)[*:2])N[*:1]; AEEA = NCCOCCOCC(=O)O

B1: N^ε-[2-[2-[2-[[(4S)-4-carboxy-4-(19-carboxynonadecanoylamino)butanoyl]amino]ethoxy]ethoxy]acetyl]Lys[Arg1,Arg17,Pro21,Pro27,His35]-h-amylin (peptide)
peptide: K([AEEA-γGlu-C20 diacid])RCNTATCATQRLANFLRHSSPNFGAIPSSTNVGSHTY-NH2
modifications: disulfide 3-8 (inferred)
notes: analogue of human amylin extended by Lys at the N-terminus; also called compound 45
B2: N^ε1-[2-[2-[2-[[(4S)-4-carboxy-4-(19-carboxynonadecanoylamino)butanoyl]amino]ethoxy]ethoxy]acetyl]-[Arg17,Pro21,Pro27,His34]-h-amylin (peptide)
peptide: K([AEEA-γGlu-C20 diacid])CNTATCATQRLANFLRHSSPNFGAIPSSTNVGHNTY-NH2
modifications: disulfide 2-7; N-terminus assumed
SMILES: CC[C@H](C)[C@H](NC(=O)[C@H](C)NC(=O)CNC(=O)[C@H](Cc1ccccc1)NC(=O)[C@H](CC(N)=O)NC(=O)[C@@H]1CCCN1C(=O)[C@H](CO)NC(=O)[C@H](CO)NC(=O)[C@H](Cc1c[nH]cn1)NC(=O)[C@H](CCCNC(=N)N)NC(=O)[C@H](CC(C)C)NC(=O)[C@H](Cc1ccccc1)NC(=O)[C@H](CC(N)=O)NC(=O)[C@H](C)NC(=O)[C@H](CC(C)C)NC(=O)[C@H](CCCNC(=N)N)NC(=O)[C@H](CCC(N)=O)NC(=O)[C@@H](NC(=O)[C@H](C)NC(=O)[C@@H]1CSSC[C@H](NC(=O)[C@@H](N)CCCCNC(=O)COCCOCCNC(=O)CC[C@H](NC(=O)CCCCCCCCCCCCCCCCCCC(=O)O)C(=O)O)C(=O)N[C@@H](CC(N)=O)C(=O)N[C@@H]([C@@H](C)O)C(=O)N[C@@H](C)C(=O)N[C@@H]([C@@H](C)O)C(=O)N1)[C@@H](C)O)C(=O)N1CCC[C@H]1C(=O)N[C@@H](CO)C(=O)N[C@@H](CO)C(=O)N[C@H](C(=O)N[C@@H](CC(N)=O)C(=O)N[C@H](C(=O)NCC(=O)N[C@@H](Cc1c[nH]cn1)C(=O)N[C@@H](CC(N)=O)C(=O)N[C@H](C(=O)N[C@@H](Cc1ccc(O)cc1)C(N)=O)[C@@H](C)O)C(C)C)[C@@H](C)O
notes: also called compound 76
B3: N^ε1-[2-[2-[2-[[2-[2-[2-[[(4S)-4-carboxy-4-(19-carboxynonadecanoylamino)butanoyl]amino]ethoxy]ethoxy]acetyl]amino]ethoxy]ethoxy]acetyl]-[Arg17,Pro21,Pro27,Arg34 … (peptide)
peptide: K([AEEA-AEEA-γGlu-C20 diacid])CNTATCATQRLANFLRHSSPNFGAIPSSTNVGRNTY-NH2
modifications: disulfide 2-7; N-terminus assumed
SMILES: CC[C@H](C)[C@H](NC(=O)[C@H](C)NC(=O)CNC(=O)[C@H](Cc1ccccc1)NC(=O)[C@H](CC(N)=O)NC(=O)[C@@H]1CCCN1C(=O)[C@H](CO)NC(=O)[C@H](CO)NC(=O)[C@H](Cc1c[nH]cn1)NC(=O)[C@H](CCCNC(=N)N)NC(=O)[C@H](CC(C)C)NC(=O)[C@H](Cc1ccccc1)NC(=O)[C@H](CC(N)=O)NC(=O)[C@H](C)NC(=O)[C@H](CC(C)C)NC(=O)[C@H](CCCNC(=N)N)NC(=O)[C@H](CCC(N)=O)NC(=O)[C@@H](NC(=O)[C@H](C)NC(=O)[C@@H]1CSSC[C@H](NC(=O)[C@@H](N)CCCCNC(=O)COCCOCCNC(=O)COCCOCCNC(=O)CC[C@H](NC(=O)CCCCCCCCCCCCCCCCCCC(=O)O)C(=O)O)C(=O)N[C@@H](CC(N)=O)C(=O)N[C@@H]([C@@H](C)O)C(=O)N[C@@H](C)C(=O)N[C@@H]([C@@H](C)O)C(=O)N1)[C@@H](C)O)C(=O)N1CCC[C@H]1C(=O)N[C@@H](CO)C(=O)N[C@@H](CO)C(=O)N[C@H](C(=O)N[C@@H](CC(N)=O)C(=O)N[C@H](C(=O)NCC(=O)N[C@@H](CCCNC(=N)N)C(=O)N[C@@H](CC(N)=O)C(=O)N[C@H](C(=O)N[C@@H](Cc1ccc(O)cc1)C(N)=O)[C@@H](C)O)C(C)C)[C@@H](C)O
notes: also called compound 95
B4: N^ε1-[(4S)-4-carboxy-4-(19-carboxynonadecanoylamino)butanoyl]-[Arg17,Pro21,Pro27]-h-amylin (peptide)
peptide: K([γGlu-C20 diacid])CNTATCATQRLANFLRHSSPNFGAIPSSTNVGSNTY-NH2
modifications: disulfide 2-7 (inferred)
notes: analogue of human amylin; also called compound 48
B5: N^ε1-[2-[2-[2-[[(4S)-4-carboxy-4-(19-carboxynonadecanoylamino)butanoyl]amino]ethoxy]ethoxy]acetyl]-[Arg17,Pro21,Pro27,Arg35]-h-amylin (peptide)
peptide: K([AEEA-γGlu-C20 diacid])CNTATCATQRLANFLRHSSPNFGAIPSSTNVGSRTY-NH2
modifications: disulfide 2-7; N-terminus assumed
SMILES: CC[C@H](C)[C@H](NC(=O)[C@H](C)NC(=O)CNC(=O)[C@H](Cc1ccccc1)NC(=O)[C@H](CC(N)=O)NC(=O)[C@@H]1CCCN1C(=O)[C@H](CO)NC(=O)[C@H](CO)NC(=O)[C@H](Cc1c[nH]cn1)NC(=O)[C@H](CCCNC(=N)N)NC(=O)[C@H](CC(C)C)NC(=O)[C@H](Cc1ccccc1)NC(=O)[C@H](CC(N)=O)NC(=O)[C@H](C)NC(=O)[C@H](CC(C)C)NC(=O)[C@H](CCCNC(=N)N)NC(=O)[C@H](CCC(N)=O)NC(=O)[C@@H](NC(=O)[C@H](C)NC(=O)[C@@H]1CSSC[C@H](NC(=O)[C@@H](N)CCCCNC(=O)COCCOCCNC(=O)CC[C@H](NC(=O)CCCCCCCCCCCCCCCCCCC(=O)O)C(=O)O)C(=O)N[C@@H](CC(N)=O)C(=O)N[C@@H]([C@@H](C)O)C(=O)N[C@@H](C)C(=O)N[C@@H]([C@@H](C)O)C(=O)N1)[C@@H](C)O)C(=O)N1CCC[C@H]1C(=O)N[C@@H](CO)C(=O)N[C@@H](CO)C(=O)N[C@H](C(=O)N[C@@H](CC(N)=O)C(=O)N[C@H](C(=O)NCC(=O)N[C@@H](CO)C(=O)N[C@@H](CCCNC(=N)N)C(=O)N[C@H](C(=O)N[C@@H](Cc1ccc(O)cc1)C(N)=O)[C@@H](C)O)C(C)C)[C@@H](C)O
notes: Acylated analogue of human amylin; also called compound 38
B6: N^ε1-[(4S)-4-carboxy-4-[[(4S)-4-carboxy-4-(19-carboxynonadecanoylamino)butanoyl]amino]butanoyl]-[Asp14,Arg17,Pro21,Pro27,Arg35]-h-amylin (peptide)
peptide: K([γGlu-γGlu-C20 diacid])CNTATCATQRLADFLRHSSPNFGAIPSSTNVGSRTY-NH2
modifications: disulfide 2-7; N-terminus assumed
SMILES: CC[C@H](C)[C@H](NC(=O)[C@H](C)NC(=O)CNC(=O)[C@H](Cc1ccccc1)NC(=O)[C@H](CC(N)=O)NC(=O)[C@@H]1CCCN1C(=O)[C@H](CO)NC(=O)[C@H](CO)NC(=O)[C@H](Cc1c[nH]cn1)NC(=O)[C@H](CCCNC(=N)N)NC(=O)[C@H](CC(C)C)NC(=O)[C@H](Cc1ccccc1)NC(=O)[C@H](CC(=O)O)NC(=O)[C@H](C)NC(=O)[C@H](CC(C)C)NC(=O)[C@H](CCCNC(=N)N)NC(=O)[C@H](CCC(N)=O)NC(=O)[C@@H](NC(=O)[C@H](C)NC(=O)[C@@H]1CSSC[C@H](NC(=O)[C@@H](N)CCCCNC(=O)CC[C@H](NC(=O)CC[C@H](NC(=O)CCCCCCCCCCCCCCCCCCC(=O)O)C(=O)O)C(=O)O)C(=O)N[C@@H](CC(N)=O)C(=O)N[C@@H]([C@@H](C)O)C(=O)N[C@@H](C)C(=O)N[C@@H]([C@@H](C)O)C(=O)N1)[C@@H](C)O)C(=O)N1CCC[C@H]1C(=O)N[C@@H](CO)C(=O)N[C@@H](CO)C(=O)N[C@H](C(=O)N[C@@H](CC(N)=O)C(=O)N[C@H](C(=O)NCC(=O)N[C@@H](CO)C(=O)N[C@@H](CCCNC(=N)N)C(=O)N[C@H](C(=O)N[C@@H](Cc1ccc(O)cc1)C(N)=O)[C@@H](C)O)C(C)C)[C@@H](C)O
notes: Acylated analogue of human amylin; also called compound 52

Experiments:
[1] = target: T1, rat calcitonin receptor (rat, UniProt P32214 25-516); assay: IC50 on rat calcitonin receptor divided by IC50 on rat amylin receptor (SPA competition)
T1 construct: whole, on cells; membranes of transiently transfected BHK tk'ts 13 cells (Assay VIII); also called rCTR; rat calcitonin (a) receptor
T1 sequence (looked up): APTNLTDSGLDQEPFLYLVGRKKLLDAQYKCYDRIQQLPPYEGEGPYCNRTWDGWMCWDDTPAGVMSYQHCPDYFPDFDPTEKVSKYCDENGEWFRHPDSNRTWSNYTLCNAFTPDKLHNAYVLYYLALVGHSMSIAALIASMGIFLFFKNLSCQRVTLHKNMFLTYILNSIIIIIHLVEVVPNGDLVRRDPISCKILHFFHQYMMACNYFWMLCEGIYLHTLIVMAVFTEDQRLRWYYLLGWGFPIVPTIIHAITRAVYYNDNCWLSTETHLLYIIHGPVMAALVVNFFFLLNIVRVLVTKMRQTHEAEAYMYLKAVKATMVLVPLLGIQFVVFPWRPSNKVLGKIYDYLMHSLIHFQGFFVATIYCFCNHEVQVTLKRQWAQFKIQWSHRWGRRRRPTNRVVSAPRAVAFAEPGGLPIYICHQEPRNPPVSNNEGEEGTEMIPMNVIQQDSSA

[2] = target: T2, human calcitonin receptor (human, UniProt P30988 25-474); assay: IC50 on human calcitonin receptor divided by IC50 on human amylin receptor (SPA competition)
T2 construct: whole, on cells; membranes of stably transfected BHK cells (Assay VII); also called hCTR; hCT
T2 sequence (looked up): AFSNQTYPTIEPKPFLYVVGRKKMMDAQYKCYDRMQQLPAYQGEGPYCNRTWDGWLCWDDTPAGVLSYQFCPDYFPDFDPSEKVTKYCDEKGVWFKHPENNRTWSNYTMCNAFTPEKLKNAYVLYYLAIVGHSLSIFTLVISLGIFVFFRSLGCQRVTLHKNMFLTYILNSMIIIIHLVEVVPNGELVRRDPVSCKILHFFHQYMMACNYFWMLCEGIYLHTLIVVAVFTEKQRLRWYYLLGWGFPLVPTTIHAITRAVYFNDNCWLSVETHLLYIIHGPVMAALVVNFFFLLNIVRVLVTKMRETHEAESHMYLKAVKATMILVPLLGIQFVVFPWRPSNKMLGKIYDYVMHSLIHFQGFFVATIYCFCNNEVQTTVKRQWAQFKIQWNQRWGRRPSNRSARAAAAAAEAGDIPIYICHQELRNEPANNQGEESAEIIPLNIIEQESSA
In short: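 Scintillation proximity competition binding on cell membranes at 35 ng/μL with SPA beads, in 50 mM Hepes pH 7.4, 1 mM CaCl2, 5 mM MgCl₂, 0.1% OA, 0.02% Tween20. Incubated 120 min at 25° C with shaking. IC₅₀ from one-site competition fit.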

[3] = target: T1, rat calcitonin receptor; assay: SPA competition with 125I-calcitonin, membranes of BHK cells with rat calcitonin receptor (Assay VIII)
[4] = target: T3, rat amylin receptor (rat calcitonin receptor + rat RAMP 3) (rat, UniProt P32214 25-516; Q9JJ73 23-147); assay: SPA competition with 125I-rat amylin, membranes of BHK cells with rat calcitonin receptor + rat RAMP3 (Assay VI)
T3 construct: whole, on cells; membranes of transiently transfected BHK tk'ts 13 cells (Assay VI); also called rAmylin-R; rat amylin 3(a) receptor
T3 sequence (looked up) 1: T1 sequence (looked up)
T3 sequence (looked up) 2: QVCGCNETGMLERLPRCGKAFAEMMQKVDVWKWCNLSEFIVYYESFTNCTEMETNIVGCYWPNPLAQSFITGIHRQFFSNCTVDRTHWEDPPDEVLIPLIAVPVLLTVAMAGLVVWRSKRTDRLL

[5] = target: T4, human amylin receptor (amylin 3(a) receptor: human calcitonin receptor coexpressed with RAMP-3) (human, UniProt P30988 25-474; O60896 24-148); assay: cell-based or functional assay
T4 sequence (looked up) 1: T2 sequence (looked up)
T4 sequence (looked up) 2: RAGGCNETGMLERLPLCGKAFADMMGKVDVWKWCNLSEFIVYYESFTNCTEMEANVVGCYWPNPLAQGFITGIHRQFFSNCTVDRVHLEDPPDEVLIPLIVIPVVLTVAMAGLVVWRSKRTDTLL

[6] = target: T5, human calcitonin receptor (human, UniProt P30988 25-474); assay: cell-based or functional assay
T5 sequence (looked up): T2 sequence (looked up)

[7] = target: T6, rat calcitonin receptor (rat, UniProt P32214 25-516); assay: SPA competition vs 125I-calcitonin, membranes with rat CTR (Assay VIII)
T6 construct: whole, on cells; Cell membranes of transiently transfected BHK tk'ts 13 cells (Assay VIII); also called rCTR; rCT
T6 sequence (looked up): T1 sequence (looked up)

[8] = target: T7, rat amylin receptor (rat calcitonin receptor + rat RAMP 3) (rat, UniProt P32214 25-516; Q9JJ73 23-147); assay: SPA competition vs 125I-rat amylin, membranes with rat CTR + rat RAMP3 (Assay VI)
T7 construct: whole, on cells; Cell membranes of transiently transfected BHK tk'ts 13 cells (Assay VI); also called rAmylin-R; rat amylin 3(a) receptor
T7 sequence (looked up) 1: T1 sequence (looked up)
T7 sequence (looked up) 2: T3 sequence (looked up) 2

Binder	Ratio rCT/rAmylin binding [1]	Ratio hCT/hAmylin binding [2]	IC50 [3] [nM]	IC50 [4] [nM]	hAmylin-R funct. EC50 (pM) [5] [pM]	hCTR funct. EC50 (pM) [6] [pM]	IC50 [7] [nM]	IC50 [8] [nM]	also measured
B1	67.1	26.8	41.8	0.623	–	–	–	–	–
B2	–	–	–	–	297	7370	–	–	–
B3	–	–	–	–	651	21500	–	–	Ratio hCT/hAmylin funct. [6]: 33
B4	201	69.7	112	0.558	–	–	–	–	–
B5	–	–	–	–	–	–	38	0.383	–
B6	–	–	–	–	–	–	159	0.335	–
